Assay results as given in the supplement of paper PMC7125110.
± gives the standard error. This sample holds only a part of the variants without activity.

B1: glmS ribozyme (parent)
chain: AUAAAAGCGCCAGAACUACAGAAAUGUAGUUGACGAGGAGGAGGUUUAUCGAAUUUUCGGCGGAUGCCUCCAAA

Columns and labels:
Settings in all cases: with glucosamine-6-phosphate
glucosamine-6-phosphate [1] = variants of: B1; assay: self-cleavage kobs at 640 uM GlcN6P; higher = faster cleavage; RNA array
In short: (§1)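 kobs was derived by fitting per-tile medians to one- or two-exponential decays after normalising signals to baseline and to non-cleaving reference variants. Those signals came from barcoded ribozyme variants transcribed in situ by E. coli RNA polymerase on sequenced MiSeq chips, followed through a hybridised Cy3 probe at 37 °C and imaged over ~14 h. Glucosamine-6-phosphate (40 μM to 10 mM) in HEPES/KCl/Mg(OAc)2 buffer was flowed in. Weighted Michaelis–Menten fits across concentrations then gave kcat and KM.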

glucosamine-6-phosphate [2] = variants of: B1; assay: self-cleavage kobs at 2500 uM GlcN6P; higher = faster cleavage; RNA array
In short: as §1

glucosamine-6-phosphate [3] = variants of: B1; assay: self-cleavage kobs at 10000 uM GlcN6P; higher = faster cleavage; RNA array
In short: as §1

For A14G G29U A39U, the “self-cleavage kobs at 640 uM GlcN6P” value (glucosamine-6-phosphate [1]) was 0.00293 ± 0.0011 s⁻¹.

For A14C U56G C67G, the “self-cleavage kobs at 640 uM GlcN6P” value (glucosamine-6-phosphate [1]) was 0.000636 ± 0.00024 s⁻¹, the “self-cleavage kobs at 2500 uM GlcN6P” value (glucosamine-6-phosphate [2]) was 0.00165 ± 0.00073 s⁻¹ and the “self-cleavage kobs at 10000 uM GlcN6P” value (glucosamine-6-phosphate [3]) was 0.0219 ± 0.0084 s⁻¹.

In the case of A14U G35A G63U, the “self-cleavage kobs at 640 uM GlcN6P” value (glucosamine-6-phosphate [1]) is reported as less than 1e-05 s⁻¹.

In the case of A14C G41C G44C C50G, the “self-cleavage kobs at 640 uM GlcN6P” value (glucosamine-6-phosphate [1]) is reported as less than 1e-05 s⁻¹.

For G29U A39U G41U U65G, the “self-cleavage kobs at 640 uM GlcN6P” value (glucosamine-6-phosphate [1]) was less than 1e-05 s⁻¹ and the “self-cleavage kobs at 2500 uM GlcN6P” value (glucosamine-6-phosphate [2]) was less than 1e-05 s⁻¹.

In the case of U30A G43A, the “self-cleavage kobs at 640 uM GlcN6P” value (glucosamine-6-phosphate [1]) is reported as less than 1e-05 s⁻¹.

In the case of A14G A15G U31G U45G C61G, the “self-cleavage kobs at 640 uM GlcN6P” value (glucosamine-6-phosphate [1]) is reported as less than 1e-05 s⁻¹ and the “self-cleavage kobs at 2500 uM GlcN6P” value (glucosamine-6-phosphate [2]) is reported as less than 1e-05 s⁻¹.

For C16G G29U G35A, the “self-cleavage kobs at 640 uM GlcN6P” value (glucosamine-6-phosphate [1]) was less than 1e-05 s⁻¹.

With G13C A39G U57C A64U C67U C70U the “self-cleavage kobs at 640 uM GlcN6P” value (glucosamine-6-phosphate [1]) was less than 1e-05 s⁻¹.

For A14C U30A G63A C67A, the “self-cleavage kobs at 640 uM GlcN6P” value (glucosamine-6-phosphate [1]) was less than 1e-05 s⁻¹.

For G13U A42C A48U A53C G60C, the “self-cleavage kobs at 640 uM GlcN6P” value (glucosamine-6-phosphate [1]) was less than 1e-05 s⁻¹ and the “self-cleavage kobs at 2500 uM GlcN6P” value (glucosamine-6-phosphate [2]) was less than 1e-05 s⁻¹.

For A14C C34G A36C G59C, the “self-cleavage kobs at 640 uM GlcN6P” value (glucosamine-6-phosphate [1]) was less than 1e-05 s⁻¹.

For A14U A48G G63C, the “self-cleavage kobs at 640 uM GlcN6P” value (glucosamine-6-phosphate [1]) was less than 1e-05 s⁻¹.

In the case of G13U U56A C71U, the “self-cleavage kobs at 640 uM GlcN6P” value (glucosamine-6-phosphate [1]) is reported as 0.000105 ± 1.6e-05 s⁻¹ and the “self-cleavage kobs at 2500 uM GlcN6P” value (glucosamine-6-phosphate [2]) is reported as 8.21e-05 ± 2.1e-05 s⁻¹.

G29U C67U C70U was tested, and the “self-cleavage kobs at 640 uM GlcN6P” value (glucosamine-6-phosphate [1]) was 4.16e-05 ± 1.2e-05 s⁻¹ and the “self-cleavage kobs at 2500 uM GlcN6P” value (glucosamine-6-phosphate [2]) was 9.35e-05 ± 1.8e-05 s⁻¹.

In the case of A14C G40C G41C G44C, the “self-cleavage kobs at 640 uM GlcN6P” value (glucosamine-6-phosphate [1]) is reported as less than 1e-05 s⁻¹ and the “self-cleavage kobs at 2500 uM GlcN6P” value (glucosamine-6-phosphate [2]) is reported as less than 1e-05 s⁻¹.

For C16U G29U G40U G62C, the “self-cleavage kobs at 640 uM GlcN6P” value (glucosamine-6-phosphate [1]) was less than 1e-05 s⁻¹.

A14C G40U U56G U65A C71U was tested, and the “self-cleavage kobs at 640 uM GlcN6P” value (glucosamine-6-phosphate [1]) was 0.000351 ± 6.7e-05 s⁻¹ and the “self-cleavage kobs at 2500 uM GlcN6P” value (glucosamine-6-phosphate [2]) was 0.00117 ± 0.00023 s⁻¹.

In the case of G13C G51A U69G, the “self-cleavage kobs at 640 uM GlcN6P” value (glucosamine-6-phosphate [1]) is reported as 4.99e-05 ± 1.8e-05 s⁻¹.

In the case of A14G A36C G66A, the “self-cleavage kobs at 640 uM GlcN6P” value (glucosamine-6-phosphate [1]) is reported as less than 1e-05 s⁻¹.

In the case of G29U C34U U47G C68U, the “self-cleavage kobs at 640 uM GlcN6P” value (glucosamine-6-phosphate [1]) is reported as 5.56e-05 ± 2.3e-05 s⁻¹.

For A14U G29C A64G, the “self-cleavage kobs at 640 uM GlcN6P” value (glucosamine-6-phosphate [1]) was less than 1e-05 s⁻¹.

For G21A G44U, the “self-cleavage kobs at 640 uM GlcN6P” value (glucosamine-6-phosphate [1]) was 9.22e-05 ± 2.3e-05 s⁻¹ and the “self-cleavage kobs at 2500 uM GlcN6P” value (glucosamine-6-phosphate [2]) was 0.000164 ± 3.3e-05 s⁻¹.

With C16U G32U A36C C58U the “self-cleavage kobs at 640 uM GlcN6P” value (glucosamine-6-phosphate [1]) was less than 1e-05 s⁻¹.

G29U A52U U65G C68G was tested, and the “self-cleavage kobs at 640 uM GlcN6P” value (glucosamine-6-phosphate [1]) was 0.000163 ± 5.2e-05 s⁻¹ and the “self-cleavage kobs at 2500 uM GlcN6P” value (glucosamine-6-phosphate [2]) was 0.000217 ± 5.1e-05 s⁻¹.

For C16U G35U A64C, the “self-cleavage kobs at 640 uM GlcN6P” value (glucosamine-6-phosphate [1]) was less than 1e-05 s⁻¹ and the “self-cleavage kobs at 2500 uM GlcN6P” value (glucosamine-6-phosphate [2]) was less than 1e-05 s⁻¹.

In the case of A14C G38U G44A G63U C67U, the “self-cleavage kobs at 640 uM GlcN6P” value (glucosamine-6-phosphate [1]) is reported as less than 1e-05 s⁻¹.

With U30A U54C G63A the “self-cleavage kobs at 640 uM GlcN6P” value (glucosamine-6-phosphate [1]) was less than 1e-05 s⁻¹.

In the case of A14G G35C A48U, the “self-cleavage kobs at 640 uM GlcN6P” value (glucosamine-6-phosphate [1]) is reported as less than 1e-05 s⁻¹.

In the case of C16U A39C U65G, the “self-cleavage kobs at 640 uM GlcN6P” value (glucosamine-6-phosphate [1]) is reported as 0.000131 ± 3.8e-05 s⁻¹, the “self-cleavage kobs at 2500 uM GlcN6P” value (glucosamine-6-phosphate [2]) is reported as 8.33e-05 ± 2.6e-05 s⁻¹ and the “self-cleavage kobs at 10000 uM GlcN6P” value (glucosamine-6-phosphate [3]) is reported as 0.000837 ± 0.00011 s⁻¹.

In the case of A15U C16U G51C C58G C61G C67U, the “self-cleavage kobs at 640 uM GlcN6P” value (glucosamine-6-phosphate [1]) is reported as 0.000417 ± 8.1e-05 s⁻¹.

With C16G U56A C71G the “self-cleavage kobs at 640 uM GlcN6P” value (glucosamine-6-phosphate [1]) was 7.67e-05 ± 1.7e-05 s⁻¹.

C16U G35C A53U C58U was tested, and the “self-cleavage kobs at 640 uM GlcN6P” value (glucosamine-6-phosphate [1]) was less than 1e-05 s⁻¹ and the “self-cleavage kobs at 2500 uM GlcN6P” value (glucosamine-6-phosphate [2]) was less than 1e-05 s⁻¹.

With A14C C16U A36G the “self-cleavage kobs at 640 uM GlcN6P” value (glucosamine-6-phosphate [1]) was less than 1e-05 s⁻¹.

With A14U G29U C50G the “self-cleavage kobs at 640 uM GlcN6P” value (glucosamine-6-phosphate [1]) was 8.61e-05 ± 3.2e-05 s⁻¹.

For A15C G29U U30A, the “self-cleavage kobs at 640 uM GlcN6P” value (glucosamine-6-phosphate [1]) was 0.000117 ± 2.7e-05 s⁻¹ and the “self-cleavage kobs at 2500 uM GlcN6P” value (glucosamine-6-phosphate [2]) was 0.000332 ± 0.00011 s⁻¹.
